Assay results from patent publication US20110280881A1, “NOVEL ANTI-HSP90 MONOCLONAL ANTIBODY” (RIKEN, priority 2010, published 2011).

Tests used:
[1] = test system: cell surface HSP90 on DC2.4 cells; assay: Internalization of cell surface HSP90 by the 6H8 antibody; format: cell-based
Procedure: The behavior of the 6H8-HSP90 complex after being recognized by the 6H8 antibody was examined as described below. First, DC2.4 cells were incubated in the presence of biotinylated 6H8 (1 μg/ml) on ice for 30 minutes and washed. Next, the cells were incubated at 37° C. with 5% CO2 for 0, 10, 20, 30, or 60 minutes. After cooling on ice, the cells were stained with PE-Cy5-streptavidin and analyzed by FACS. The results are shown in the left panel of FIG. 4B. Shown in the right panel are bar graphs for the MFI of each group.
Furthermore, immunostaining was performed to compare the behavior of HSP90 with the behaviors of the MHC class 1 molecule H-2K^b and the MHC class II molecule I-A^b. First, DC2.4 cells were incubated in the presence of the biotinylated 6H8 antibody and the FITC-labeled anti-H-2K^b antibody or anti-I-A^b antibody (Pharmingen, the antibody was used at a 100-fold dilution) in the same manner as the above. The cells were stained with PE-Cy5-streptavidin, returned to room temperature and incubated for 20 minutes, and then examined using a confocal microscope. […] It was confirmed that cell surface HSP90 was internalized by the 6H8 antibody.

HSP90 = assay: Western blot of DC2.4 dendritic cell line extract with anti-HSP90 antibodies; format: binding; conditions: SDS-PAGE
Procedure: A BALE/c mouse was twice immunized with 50 μg of human recombinant HSP90α (prepared using an Escherichia coli expression vector supplied by Professor Takayuki Nemoto at the Nagasaki University School of Dentistry; see J. Biol. Chem. 272:26179-26187, 1997). The adjuvant used was 50 μl of TiterMax Gold (TiterMax, Ga., USA). Three days after final immunization, splenocytes were taken out from the immunized mouse and fused with P3U1 myeloma cells in a 1:1 ratio by means of polyethylene glycol 4000. The fused cells were seeded to a 96-well plate at 5000 cells/well and cultured in an HAT selection culture broth (an RPMI containing 10% FCS, supplemented with 0.1 mM hypoxanthine, 0.016 mM thymidine, and […] aminopterin) for 10 days. The antibodies against HSP90a present in the supernatants in wells containing proliferated cells were detected by ELISA. The hybridomas secreting the antibodies against HSP90α were re-seeded at 0.2 cells/well and further cultured using an HT selection culture broth (an RPMI containing 10% FCS, supplemented with 0.1 mM hypoxanthine and 0.016 mM thymidine) for 10 days. For the antibodies in the supernatants of proliferated cells, it was confirmed using ELISA and Western blotting that antibodies against HSP90 were secreted. […]

OT-I CD8+ T cells [2] = assay: In vivo proliferation of transplanted CFSE-labeled OT-I CD8+ T cells; parameters: species or system mouse; conditions: for proliferation of transplanted OT-I CD8+ T cells: 3 μg fractions 15 to 19 (mixture), three days
Procedure: First, CFSE-labeled OT-I CD8^+ T cells were generated as follows: A 10 mM CFSE stock solution in DMSO was diluted with PBS to prepare a 10 μM CFSE solution. A pellet of splenocytes prepared in a 15-ml tube was thoroughly loosened by tapping, after which 2 ml of the 10 μM CFSE solution was added thereto, and the mixture was gently vortexed. After being allowed to stand at room temperature for 5 minutes, the cells were washed twice with PBS (5 ml).
The CFSE-labeled OT-I CD8^+ T cells were transplanted to recipient mice from the tail vein. The recipient mice used were a wild-type B6 mouse (WT B6) and a TAP1-deficient mouse [TAP1 KO (purchased from Jackson Laboratory, U.S.A.)]. At the same time, 3 μg of the fractions 15 to 19 (mixture), 3 μg of the fraction 33, or a mixture of the fraction 33 (3 μg) and the free 6H8 antibody (3 μg) was injected. Three days later, splenocytes of each recipient mouse were collected and examined for proliferation of the transplanted cells.
A mixture of the fractions 15 to 19 containing the 6H8-OVA conjugate was injected into recipient mice at a series of doses, and the proliferation of OT-I CD8^+ T cells was examined in the same manner as the above. As a result, higher doses of the mixture more potently promoted the proliferation of CD8^+ T cells, although this effect was observed even at 0.1 μg (upper panel of FIG. 8C).

OT-I CD8+ T cells [3] = assay: In vitro cross-presentation assay with BMDC of normal and FcRγ KO mouse; format: cell-based; conditions: BMDC pulsed 3 hours, co-culture with OT-I CD8+ T cells, IFNγ ELISA
Procedure: (1) A bone marrow-derived dendritic cells (BMDCs) were established from a normal mouse and an FcRγ KO mouse (supplied by Professor Akira Shibuya, Immunology, Life System Medical Sciences, Majors of Medical Sciences, Graduate School of Comprehensive Human Sciences, University of Tsukuba) as described below. Bone marrow was recovered from a mouse femur and tibia, and 1×10^6 cells each were cultured in a 24-well plate using 2 ml/well of a complete RPMI containing 20 ng/ml recombinant mouse GM-CSF (R&D). Half of the medium was exchanged for a fresh medium on day 3 of cultivation, and the cells obtained on day 5 of cultivation were used as the BMDC. (2) BMDCs at Day 5 induced in a GM-CSF-dependent manner was stained with biotin-6H8 (2.5 μg/ml) and streptavidin-APC (0.2 μg/ml), and its fluorescence was determined using FACS Canto (BD).
(1) A pellet of 1×10^6 BMDC cells at Day 5 induced in a GM-CSF-dependent manner were prepared in a 15-ml tube. After adding 400 μl of an antigen (6H8-OVA, OVA, or OVA257-264) thereto, the tube was incubated with 5% CO2 at 37° C. for 3 hours. The cells were fixed in 0.5% para-formaldehyde, after which the cells were washed with 0.1 M glycine and then with RPMI; thereafter, the density was adjusted to 1×10^5 cells/ml. (2) Concurrently, OT-I CD8^+ T cells were purified and the density was adjusted to 1×10^5 cells/ml. […]

| Molecule | internalization of cell surface HSP90 (confocal microscope) ([1]; DC2.4, 20 minutes at room temperature) | time for the 6H8-HSP90 complex to disappear from the cell surface (enter into cells) ([1]; DC2.4, biotinylated 6H8 1 μg/ml, 37° C.) | detection of HSP90 in Western blot (HSP90) | proliferation of transplanted OT-I CD8+ T cells (OT-I CD8+ T cells [2]; TAP1-deficient mouse) | dose at which promotion of proliferation of OT-I CD8+ T cells was observed (OT-I CD8+ T cells [2]; series of doses injected into recipient mice) | proliferation of transplanted OT-I CD8+ T cells (OT-I CD8+ T cells [2]; wild-type B6 mouse) | cross-presentation potential of FcRγ KO mouse-derived dendritic cells compared with normal mouse-derived dendritic cells (OT-I CD8+ T cells [3]) |
| --- | --- | --- | --- | --- | --- | --- | --- |
| 6H8: anti-HSP90 monoclonal antibody produced by hybridoma FERM BP-11222; epitope … (antibody) VH: QVQLQQSGPELVKPGASVRISCKASGYTFTSYYIHWVKQRPGQGLEWIGWIYPGNVNTKYNEKFKGKATLTADKSSSTAYMQLSSLTSEDSAVYFCARYGNYPFAYWGQGTLVTVSAAKTTAPSVYPLAPVCGDTTGSSVTLGCLVKGYF VL: DVVMTQTPLSLPVSLGDQASISCRSSQSLVHSNGNTYLHWYLQKPGQSPKLLIYKVSNRFSGVPDRFSGSGSGTDFTLKISRVEAEDLGVYFCSQSTHVPPTFGGGTKLEIKRADAAPTVSIFPPSSEQLTSGGASVVCFLNNFYPKDINVKWKIDGS | internalized | about 10 minutes | detected HSP90 as a single band | – | – | – | – |
| 6H8-OVA: high molecular weight conjugate of the 6H8 antibody and maleimide-activated OVA (conjugate) VH: QVQLQQSGPELVKPGASVRISCKASGYTFTSYYIHWVKQRPGQGLEWIGWIYPGNVNTKYNEKFKGKATLTADKSSSTAYMQLSSLTSEDSAVYFCARYGNYPFAYWGQGTLVTVSAAKTTAPSVYPLAPVCGDTTGSSVTLGCLVKGYF VL: DVVMTQTPLSLPVSLGDQASISCRSSQSLVHSNGNTYLHWYLQKPGQSPKLLIYKVSNRFSGVPDRFSGSGSGTDFTLKISRVEAEDLGVYFCSQSTHVPPTFGGGTKLEIKRADAAPTVSIFPPSSEQLTSGGASVVCFLNNFYPKDINVKWKIDGS GSIGAASMEFCFDVFKELKVHHANENIFYCPIAIMSALAMVYLGAKDSTRTQINKVVRFDKLPGFGDSIEAQCGTSVNVHSSLRDILNQITKPNDVYSFSLASRLYAEERYPILPEYLQCVKELYRGGLEPINFQTAADQARELINSWVESQTNGIIRNVLQPSSVDSQTAMVLVNAIVFKGLWEKAFKDEDTQAMPFRVTEQESKPVQMMYQIGLFRVASMASEKMKILELPFASGTMSMLVLLPDEVSGLEQLESIINFEKLTEWTSSNVMEERKIKVYLPRMKMEEKYNLTSVLMAMGITDVFSSSANLSGISSAESLKISQAVHAAHAEINEAGREVVGSAEAGVDAASVSEEFRADHPFLFCIKHIATNAVLFFGRCVSP | – | – | – | did not induce the proliferation of CD8^+ T cells at all | ≤ 0.1 µg | proliferation of CD8^+ T cells was confirmed | significantly decreased |
